Test results published in patent US20230272054A1, “COMBINATION THERAPIES FOR THE TREATMENT AND PREVENTION OF BIOFILMS” (priority 2020, published 2023).
Entries after “also recorded” stand apart in the source; their conditions may differ.

Experiments:
UPEC biofilms = assay: Disruption of 24 h UPEC biofilms in vitro (CLSM, COMSTAT average thickness); details: 24 h UPEC biofilms, 200 nM protein, 16 h
Human neutrophils = assay: NET formation by neutrophils incubated with HMGB1 isoforms (CLSM); format: cell-based; details: 200 nM protein, 3.5 h
Protocol: Neutrophils were fixed, then labeled as described above to visualize the NETs.
Visualization of NETs structure upon incubation of neutrophils with various isoforms of HMGB1: Human neutrophils were isolated from blood using the EASYSEP™ isolation kit (Stemcell Technologies Inc.). […] NETs were fixed in formalin, blocked with 10% normal goat serum (Life Technologies), and labeled with α-dsDNA monoclonal antibody (1 μg), and α-neutrophil elastase polyclonal antibody (1 μg) or naive rabbit and mouse isotype controls (1 μg) in 200 μl PBS for 16 h hours at 4° C. NETs were washed with PBS and incubated for 1 h with 1:200 dilution goat α-rabbit IgG conjugated to ALEXAFLUOR® 594, goat α-mouse IgG conjugated to ALEXAFLUOR® 488, and 1:500 dilution wheat germ agglutinin conjugated to ALEXAFLUOR® 350 (PMN membrane stain). NETs were imaged with a Zeiss LSM 800 confocal microscope (Carl Zeiss Inc.) and rendered with Zeiss Zen software.

HJ DNA [1] = assay: Electrophoretic mobility shift assay (EMSA), binding to HJ DNA; details: 20 nM 6-carboxyfluorescein HJ DNA, 50-500 nM protein, non-denaturing PAGE
Protocol: Arrows indicate the HJ DNA-protein complex.
FIG. 11A provides that NEM-modified rHMGB1 was confirmed by triton acetic acid urea gel (TAU gel). […] Arrows indicate the HJ DNA-protein complex.
(§1) Electrophoretic mobility shift assay (EMSA): EMSA was performed as previously described (Devaraj et al., 2019).

[2] = system: biofilms formed by UPEC, B. cenocepacia, NTHI, Enterobacter spp, S. aureus, K. pneumoniae, A. baumanii, P. aeruginosa, E. faecium; assay: Disruption of 24 h bacterial biofilms in vitro by HMGB1 isoforms (LIVE/DEAD stain, CLSM, COMSTAT average thickness); details: 24 h biofilms of nine pathogens; 200 nM protein, 16 h (S. aureus 800 nM rHMGB1; E. faecium 800 nM, 1 h)
B. cenocepacia biofilms = assay: Disruption of 24 h B. cenocepacia biofilms in vitro (CLSM, COMSTAT average thickness); details: 24 h biofilms, 200 nM protein, 16 h
[3] = system: Enterobacter spp biofilms; assay: Disruption of 24 h Enterobacter spp biofilms in vitro (CLSM, COMSTAT average thickness); details: 24 h biofilms, 200 nM protein, 16 h
K. pneumoniae biofilms = assay: Disruption of 24 h K. pneumoniae biofilms in vitro (CLSM, COMSTAT average thickness); details: 24 h biofilms, 200 nM protein, 16 h
HJ DNA [4] = assay: Stabilization of HJ DNA at RT or 55° C, non-denaturing PAGE; format: binding; details: 32P HJ DNA, 25-500 nM protein, RT, 10 min
Protocol: 5′ end-labeled ^32P HJ DNA was incubated with increasing concentrations (25-500 nM) of IHF (FIG. 8A), rHMGB1 (FIG. 8B) or RuvA (FIG. 8C) either at room temperature (RT) or at 55° C. for 10 min, then resolved on a 6% non-denaturing PAGE. Asterisk indicates melted oligos and arrows indicate DNA-protein complex. […] This outcome contrasts with that observed with both IHF and the prototypic HJ DNA binding protein, RuvA.
To test the hypothesis, HJ DNA was incubated with either HMGB1, the DNABII protein IHF, or the prototypic HJ DNA binding protein, RuvA at room temperature (RT) or 55° C. (melting temperature of HJ DNA) and resolved the complexes by non-denaturing polyacrylamide gel electrophoresis (PAGE). […] (FIG. 8) as indicated by the decrease in abundance of the shifted HJ DNA-HMGB1 complex (arrow) and the concomitant increase in the constituent melted oligos (asterisk).
as §1

For “NEM-rHMGB1: rHMGB1 alkylated with N-ethylmaleimide (NEM)”, the “biofilm average thickness / anti-biofilm activity, UPEC” value (UPEC biofilms) was “lost its anti-biofilm activity”, the “induction of NET formation by neutrophils” value (Human neutrophils) was “intertwined NETs specifically formed” and the “induction of NET formation by neutrophils” value (Human neutrophils; listed as NEM-HMGB1) was “induced neutrophils to form NETs”. The “binding to HJ DNA (EMSA)” value (HJ DNA [1]) was “lost its ability to bind HJ DNA; also recorded: unable to bind to HJ DNA”.

B1: nHMGB1: native HMGB1 purified from calf thymus, purchased from Chondrex Inc (protein, UniProt P10103 2-215, looked up)
High mobility group protein B1: GKGDPKKPRGKMSSYAFFVQTCREEHKKKHPDASVNFSEFSKKCSERWKTMSAKEKGKFEDMAKADKARYEREMKTYIPPKGETKKKFKDPNAPKRPPSAFFLFCSEYRPKIKGEHPGLSIGDVAKKLGEMWNNTAADDKQPYEKKAAKLKEKYEKDIAAYRAKGKPDAAKKGVVKAEKSKKKKEEEEDEEDEEDEEEEEDEEDEEEEEDDDDE
With B1 the “biofilm average thickness / anti-biofilm activity, UPEC” value (UPEC biofilms) was “equivalent to that of rHMGB1”, the “biofilm average thickness compared to control” value [2] was “significantly disrupted bacterial biofilms” and the “biofilm average thickness / anti-biofilm activity, B. cenocepacia” value (B. cenocepacia biofilms) was “equivalent to that of rHMGB1”.

B2: Ox-rHMGB1: rHMGB1 oxidized with hydrogen peroxide (protein, UniProt P09429 1-215, looked up)
High mobility group protein B1: MGKGDPKKPRGKMSSYAFFVQTCREEHKKKHPDASVNFSEFSKKCSERWKTMSAKEKGKFEDMAKADKARYEREMKTYIPPKGETKKKFKDPNAPKRPPSAFFLFCSEYRPKIKGEHPGLSIGDVAKKLGEMWNNTAADDKQPYEKKAAKLKEKYEKDIAAYRAKGKPDAAKKGVVKAEKSKKKKEEEEDEEDEEDEEEEEDEEDEDEEEDDDDE
modifications: oxidized with hydrogen peroxide
For B2, the “biofilm average thickness / anti-biofilm activity, UPEC” value (UPEC biofilms) was “lost its anti-biofilm effect as compared to rHMGB1” and the “biofilm average thickness / anti-biofilm activity, UPEC” value (UPEC biofilms; listed as ox-rHMGB1) was “significantly reduced upon oxidation”.

B3: P-rHMGB1: phosphorylated isoform of rHMGB1 (protein, UniProt P09429 1-215, looked up)
High mobility group protein B1: MGKGDPKKPRGKMSSYAFFVQTCREEHKKKHPDASVNFSEFSKKCSERWKTMSAKEKGKFEDMAKADKARYEREMKTYIPPKGETKKKFKDPNAPKRPPSAFFLFCSEYRPKIKGEHPGLSIGDVAKKLGEMWNNTAADDKQPYEKKAAKLKEKYEKDIAAYRAKGKPDAAKKGVVKAEKSKKKKEEEEDEEDEEDEEEEEDEEDEDEEEDDDDE
modifications: phosphorylated
In the case of B3, the “biofilm average thickness / anti-biofilm activity, B. cenocepacia” value (B. cenocepacia biofilms) is reported as “significantly disrupted biofilms”, the “biofilm average thickness / anti-biofilm activity, B. cenocepacia” value (B. cenocepacia biofilms; listed as PrHMGB1) is reported as “significantly disrupted” and the “biofilm average thickness / anti-biofilm activity, Enterobacter spp” value [3] is reported as “significantly disrupted biofilms”. The “biofilm average thickness / anti-biofilm activity, Enterobacter spp” value ([3]; listed as PrHMGB1) was “significantly disrupted”, the “biofilm average thickness / anti-biofilm activity, K. pneumoniae” value (K. pneumoniae biofilms) was “significantly disrupted biofilms” and the “biofilm average thickness / anti-biofilm activity, K. pneumoniae” value (K. pneumoniae biofilms; listed as PrHMGB1) was “significantly disrupted”.

B4: Ac-rHMGB1: acetylated isoform of rHMGB1 (protein, UniProt P09429 1-215, looked up)
High mobility group protein B1: MGKGDPKKPRGKMSSYAFFVQTCREEHKKKHPDASVNFSEFSKKCSERWKTMSAKEKGKFEDMAKADKARYEREMKTYIPPKGETKKKFKDPNAPKRPPSAFFLFCSEYRPKIKGEHPGLSIGDVAKKLGEMWNNTAADDKQPYEKKAAKLKEKYEKDIAAYRAKGKPDAAKKGVVKAEKSKKKKEEEEDEEDEEDEEEEEDEEDEDEEEDDDDE
modifications: acetylated
B4 was tested, and the “biofilm average thickness / anti-biofilm activity, B. cenocepacia” value (B. cenocepacia biofilms) was “significantly disrupted biofilms”, the “biofilm average thickness / anti-biofilm activity, Enterobacter spp” value [3] was “significantly disrupted biofilms” and the “biofilm average thickness / anti-biofilm activity, K. pneumoniae” value (K. pneumoniae biofilms) was “significantly disrupted biofilms”.

B5: IHF: the DNABII protein IHF (protein)
chain 1: MATITKLDIIEYLSDKYHLSKQDTKNVVENFLEEIRLSLESGQDVKLSGFGNFELRDKSSRPGRNPKTGDVVPVSARRVVTFKPGQKLRARVEKTK
chain 2: MTKSELMEKLSAKQPTLPAKEIENMVKGILEFISQSLENGDRVEVRGFGSFSLHHRQPRLGRNPKTGDSVNLSAKSVPYFKAGKELKARVDVQA
For B5, the “HJ DNA-protein complex at room temperature (RT)” value (HJ DNA [4]) was “bound to HJ DNA to form stable complexes at RT”.

B6: RuvA: the prototypic HJ DNA binding protein (protein, UniProt P0A809 1-203, looked up)
Holliday junction branch …: MIGRLRGIIIEKQPPLVLIEVGGVGYEVHMPMTCFYELPEAGQEAIVFTHFVVREDAQLLYGFNNKQERTLFKELIKTNGVGPKLALAILSGMSAQQFVNAVEREEVGALVKLPGIGKKTAERLIVEMKDRFKGLHGDLFTPAADLVLTSPASPATDDAEQEAVAALVALGYKPQEASRMVSKIARPDASSETLIREALRAAL
For B6, the “HJ DNA-protein complex at room temperature (RT)” value (HJ DNA [4]) was “bound to HJ DNA to form stable complexes at RT”.
